For orientation: Kd means the equilibrium constant for the complex coming apart. High values mean weaker binding, low ones tighter binding.

Here are results for 1 substance from publication PMC12433258, “Binding Differences of the Peptide‐Substrate–Binding Domain of Collagen Prolyl 4‐Hydroxylases I and II for Proline‐ and Hydroxyproline‐Rich Peptides” (Proteins, 2025).

Assay [1] addresses PSB‐II^142–236 construct (peptide‐substrate–binding domain of the α‐II subunit of human collagen prolyl 4‐hydroxylase II) (human) (UniProt O15460). Briefly: ITC; 3 mM peptide titrated into 50 μM PSB‐II in the cell; 20 mM Tris, 50 mM NaCl, 50 mM glycine, pH 8.0; 25°C; one‐set‐of‐sites model with fixed stoichiometry (n = 1); three measurements.
Assay [2] deals with PSB‐I^143–238 construct (peptide‐substrate–binding domain of the α‐I subunit of human collagen prolyl 4‐hydroxylase I) (human) (UniProt P13674). As to the kind of experiment: ITC; 3 mM peptide titrated into 50 μM PSB‐I^143–238 in the cell; 20 mM Bis‐Tris, 100 mM glycine, pH 6.8; 25°C; one‐set‐of‐sites model with fixed stoichiometry (n = 1); three measurements.
PSB‐I^143–238 construct (peptide‐substrate–binding domain of the α‐I subunit of human collagen prolyl 4‐hydroxylase I) (human), sequence (P13674 160-255): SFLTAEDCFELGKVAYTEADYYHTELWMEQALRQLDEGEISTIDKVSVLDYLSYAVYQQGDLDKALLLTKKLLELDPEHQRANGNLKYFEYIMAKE

PSB‐II^142–236 construct (peptide‐substrate–binding domain of the α‐II subunit of human collagen prolyl 4‐hydroxylase II) (human), sequence (O15460 163-257): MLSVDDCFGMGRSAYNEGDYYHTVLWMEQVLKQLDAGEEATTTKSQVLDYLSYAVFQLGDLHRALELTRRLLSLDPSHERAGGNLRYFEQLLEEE

In the case of POG‐PAG‐POG peptide, the values for the Kd in assay [1] and in assay [2] were 26.2 µM and 79.6 µM, respectively. Further, the dH in assay [2] was -12.7 kcal/mol.
